Laboratory results reported in patent US20250026849A1 (ARCELLX, published 2025).
Changes are numbered by the printed parent chain. Blank lines part the entries; values can stand above or below the binder they belong to.

Molecular target: T1, BCMA (Homo sapiens (Human), UniProt Q02223 1-54, limits assumed)
T1 sequence: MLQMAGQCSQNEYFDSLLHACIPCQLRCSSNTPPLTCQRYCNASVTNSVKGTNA
Assay: ELISA, format not described
Parameters: unit not given here

ELISA_avg: 4.31
B1: D-domain SEQ ID NO: 81 (designed binder)
chain: MGSWAEFYHRLDAISSRLRALGGSEAELAAFEKEIAAFESELQAYKGKGNPEVEELRYTAALIRIYLQAYRHN

ELISA_avg: 8.21
B2: D-domain SEQ ID NO: 95 (designed binder)
chain: MGSWSEFYDRLKAIADRLHALGGSEAELAAFEKEIAAFESELQAYKGKGNPEVEELRTEAAIIRVYLQAYRHN

ELISA_avg: 7.8
B5: D-domain SEQ ID NO: 100 (designed binder)
chain: B1 chain with A5V, D12E, S15R, S16Y, R19S, T59V, L62V, I65Y, Y66R

ELISA_avg: 7.72
B16: D-domain SEQ ID NO: 83 (designed binder)
chain: MGSWSEFDQRLAAIYQRLNALGGSEAELAAFEKEIAAFESELQAYKGKGNPEVEELRYSAALIRVMLQAYRHN

ELISA_avg: 6.37
B19: D-domain SEQ ID NO: 104 (designed binder)
chain: B2 chain with Y8S, K12H, A15S, H19Q, T58I, E59Q, Y66W

ELISA_avg: 16.3
B20: D-domain SEQ ID NO: 97 (designed binder)
chain: B2 chain with S5V, Y8E, D9E, K12A, D16T, T58W, E59R

ELISA_avg: 11.3
B21: D-domain SEQ ID NO: 103 (designed binder)
chain: MGSWEEFSERLEAISIRLRALGGSEAELAAFEKEIAAFESELQAYKGKGNPEVEELRVSAAIIRVWLQAYRHN

ELISA_avg: 7.63
B22: D-domain SEQ ID NO: 86 (designed binder)
chain: B16 chain with S5V, D8E, Q9Y, A12V, Y15F, Q16D, N19Q, S59Q

More lines, now with the values behind:

B3: D-domain SEQ ID NO: 85 (designed binder)
chain: B16 chain with S5N, D8E, Q9D, A12S, Y15S, Q16A, N19S
ELISA_avg: 4.09

B4: D-domain SEQ ID NO: 91 (designed binder)
chain: B16 chain with S5T, D8E, Q9H, A12E, Y15A, Q16G, V65F, M66W
ELISA_avg: 6.34

B6: D-domain SEQ ID NO: 101 (designed binder)
chain: MGSWVEFYDRLEAIRYRLSALGGSEAELAAFEKEIAAFESELQAYKGKGNPEVEELRYIAAVIRYRLQAYRHN
ELISA_avg: 5.64

B7: D-domain SEQ ID NO: 89 (designed binder)
chain: B16 chain with S5T, D8S, A12G, Y15S, Q16E, N19Y, V65F
ELISA_avg: 4.15

B8: D-domain SEQ ID NO: 99 (designed binder)
chain: B2 chain with S5T, Y8R, K12G, A15Y, D16H, H19D, T58Y, E59Q
ELISA_avg: 6.7

B9: D-domain SEQ ID NO: 87 (designed binder)
chain: B16 chain with S5V, D8Q, Q9G, A12G, Y15H, Q16E, N19Q, M66F
ELISA_avg: 3.83

B10: D-domain SEQ ID NO: 94 (designed binder)
chain: B16 chain with S5I, D8H, A12E, Y15V, Q16T, N19E, S59Q, M66F
ELISA_avg: 8

B11: D-domain SEQ ID NO: 92 (designed binder)
chain: B21 chain with E5T, S8A, E9N, S15N, I16A, R19H, V58F, I62L, W66Y
ELISA_avg: 6.42

B12: D-domain SEQ ID NO: 88 (designed binder)
chain: B1 chain with A5Y, Y8S, H9M, D12S, S15W, S16E, R19H, T59Q, I65F
ELISA_avg: 7.12

B13: D-domain SEQ ID NO: 90 (designed binder)
chain: B16 chain with S5T, D8H, Q9D, A12E, Y15T, Q16H, I63L, M66F
ELISA_avg: 5.79

B14: D-domain SEQ ID NO: 96 (designed binder)
chain: B2 chain with S5W, Y8E, K12S, A15M, D16E, T58Y, E59R
ELISA_avg: 10.4

B15: D-domain SEQ ID NO: 93 (designed binder)
chain: B16 chain with S5E, Q9R, A12Y, Y15A, Q16R, N19E, S59Q, M66W
ELISA_avg: 8.85

B17: D-domain SEQ ID NO: 82 (designed binder)
chain: B16 chain with S5T, D8A, Q9S, A12V, Y15R, N19Q, L62I
ELISA_avg: 7.99

B18: D-domain SEQ ID NO: 84 (designed binder)
chain: B16 chain with S5V, D8H, Q9N, A12S, Y15S, Q16D, N19G
ELISA_avg: 7.36
